According to article PMC5537072, “Anthranilate phosphoribosyltransferase from the hyperthermophilic archaeon Thermococcus kodakarensis shows maximum activity with zinc and forms a unique dimeric structure” (FEBS Open Bio, 2017):

Experiments:
Nc1ccccc1C(=O)O = assay: purified protein; type: biochemical, Thermococcus kodakarensis; settings: 1 mM PRPP, 100 μM ZnCl2, 100 mM Tris/HCl pH 8.5, 55 °C
purified protein = substrate: O=P(O)(O)OC[C@H]1O[C@H](OP(=O)(O)OP(=O)(O)O)[C@H](O)[C@@H]1O; assay: purified protein; type: biochemical, Thermococcus kodakarensis; settings: 4 μM anthranilate, 100 μM ZnCl2, 100 mM Tris/HCl pH 8.5, 55 °C

Work on TkTrpD (Thermococcus kodakarensis KOD1) yielded a Km (Nc1ccccc1C(=O)O) of 2.2 µM.

B1: TkTrpD (Thermococcus kodakarensis KOD1) (protein)
chain: MSLLAKIVDGKNLSFEEAYELFNELKGSDGVLIGAYLAALQTKGYTGEELAGLARAMRDSAVKLDLGKVADTAGTGGDGSSTINVSTASALILSAFTRVAKHGNVSITSKSGSANVLEALGLNIRVSPERAREMVESTNFTFIFAPAYHPALRPIMPVRKALGIKTVFNVIGPLANPADPAYQVVGVNSPELLEPVAEALEFLGVERALVVHGSGMDEVSPHRETLVLEVGNGVERYTLSPEDFGIEPVKPLPCSSPEESAARIKAVLGGSGRREDRDFILVNASAALYASGVAEDFREGLEMAREALGQGMLEKLEEIACLSKS
notes: homodimer
In the case of B1, the Km (purified protein) is reported as 250 µM.
